Test [1] deals with T1, recombinant human soluble ECD of hCD16a/FCGRIIIA (human, UniProt P08637 17-208).
T1 construct: extracellular domain; also called FcγRIIIa
As to the kind of experiment: ELISA: plate coated with recombinant human CD16a/FCGRIIIA ECD, antibody titrated 0.005-80 ug/ml, HRP goat anti-human Fc, OD650.

Test [2] has as its target T2, FcγRIIa (CD32) (Sino Biological, cat #10374-H08H) (UniProt P12318 34-218).
T2 sequence (looked up): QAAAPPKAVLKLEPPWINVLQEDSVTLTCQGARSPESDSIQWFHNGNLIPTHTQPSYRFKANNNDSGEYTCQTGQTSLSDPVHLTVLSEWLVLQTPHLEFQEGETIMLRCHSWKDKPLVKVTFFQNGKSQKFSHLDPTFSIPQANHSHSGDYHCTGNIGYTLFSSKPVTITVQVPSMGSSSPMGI
As to the kind of experiment: Sandwich ELISA: anti-His capture of His-tagged FcγRIIA mixed with titrated antibody, HRP goat anti-human IgG Fc, OD650. For orientation: ELISA stands for enzyme-linked immunosorbent assay.

Test [3] addresses T3, human C1q (sigma Cat #C1740) (human, UniProt P02745 23-245; P02746 28-253; P02747 29-245). Kind of test: ELISA: plate coated with antibody at 1 ug/ml, human C1q titrated 0.625-40 ug/ml, rabbit anti-human C1q then HRP goat anti-rabbit, OD650.
Test [4] has as its target T4, recombinant human CDH3 full-length (human, UniProt P22223 25-829, limits assumed).
T4 construct: plate-coated recombinant protein, not on cells
Kind of test: ELISA: plate coated with recombinant human full-length CDH3, antibody titrated 0.0003-20 nM, HRP goat anti-human Fc, OD650.

In test [5] the target is T5, recombinant human soluble ECD of CD64/FCGRIA (human, UniProt P12314 16-292).
T5 construct: extracellular domain; also called FcγRI
T5 sequence (P12314 16-292): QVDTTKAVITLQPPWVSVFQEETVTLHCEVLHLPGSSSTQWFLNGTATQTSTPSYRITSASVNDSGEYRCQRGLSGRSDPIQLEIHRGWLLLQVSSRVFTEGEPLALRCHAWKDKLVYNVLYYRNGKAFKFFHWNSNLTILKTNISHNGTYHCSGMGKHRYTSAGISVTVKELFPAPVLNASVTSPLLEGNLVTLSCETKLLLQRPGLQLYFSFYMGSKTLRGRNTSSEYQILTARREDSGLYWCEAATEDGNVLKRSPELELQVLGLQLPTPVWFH
As to the kind of experiment: ELISA: plate coated with recombinant human CD64/FCGRIA ECD, antibody titrated, HRP goat anti-human Fc, OD650.

The target of test [6] is T6, recombinant human FcRn (Sino Biological) (human, UniProt P55899 24-297; P61769 21-119). As to the kind of experiment: ELISA at pH 6.0: plate coated with recombinant human FcRn, antibody titrated, HRP goat anti-human Fc, OD650.
T6 sequence (P55899 24-297 limits assumed, chain 1 of 2): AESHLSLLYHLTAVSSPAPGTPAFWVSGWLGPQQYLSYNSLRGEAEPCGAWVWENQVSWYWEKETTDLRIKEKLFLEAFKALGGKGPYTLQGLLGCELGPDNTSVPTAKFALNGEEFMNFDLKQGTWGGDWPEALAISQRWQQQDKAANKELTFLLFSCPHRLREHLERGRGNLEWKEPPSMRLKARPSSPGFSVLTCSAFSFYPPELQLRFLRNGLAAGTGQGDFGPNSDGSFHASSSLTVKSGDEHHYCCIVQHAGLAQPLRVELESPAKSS
T6 sequence (P61769 21-119 limits assumed, chain 2 of 2): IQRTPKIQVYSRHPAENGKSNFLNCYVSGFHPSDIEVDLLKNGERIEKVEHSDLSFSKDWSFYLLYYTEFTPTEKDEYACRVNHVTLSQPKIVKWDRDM
Test [7] has as its target T6, recombinant human FcRn (Sino Biological). The test is described as above. The source holds these as a separate data set.
Test [8] addresses T3, human C1q (sigma Cat #C1740). As to the kind of experiment: ELISA: plate coated with antibody at 1 ug/ml, human C1q titrated 0.625-40 ug/ml, rabbit anti-human C1q then HRP goat anti-rabbit, OD650. This is another data set of the same source.
Test [9] concerns the target T5, recombinant human soluble ECD of …. Kind of test: ELISA: plate coated with recombinant human CD64/FCGRIA ECD, antibody titrated, HRP goat anti-human Fc, OD650. The source holds these as a separate data set.
Test [10] deals with T1, recombinant human soluble ECD of …. Kind of test: ELISA: plate coated with recombinant human CD16a/FCGRIIIA ECD, antibody titrated 0.005-80 ug/ml, HRP goat anti-human Fc, OD650. The source holds these as a separate data set.

We go through two molecules from patent US20230165967A1 (TAE LIFE SCIENCES, published 2023).

Like-named read-outs stand apart in the source and are kept apart here.

T1 sequence (P08637 17-208): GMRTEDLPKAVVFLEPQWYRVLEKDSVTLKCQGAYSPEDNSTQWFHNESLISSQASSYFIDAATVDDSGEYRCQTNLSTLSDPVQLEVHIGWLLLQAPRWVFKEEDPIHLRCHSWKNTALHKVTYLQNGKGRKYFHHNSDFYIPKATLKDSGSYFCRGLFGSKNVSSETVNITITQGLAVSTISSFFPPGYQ
T3 sequence (P02745 23-245 limits assumed, chain 1 of 3): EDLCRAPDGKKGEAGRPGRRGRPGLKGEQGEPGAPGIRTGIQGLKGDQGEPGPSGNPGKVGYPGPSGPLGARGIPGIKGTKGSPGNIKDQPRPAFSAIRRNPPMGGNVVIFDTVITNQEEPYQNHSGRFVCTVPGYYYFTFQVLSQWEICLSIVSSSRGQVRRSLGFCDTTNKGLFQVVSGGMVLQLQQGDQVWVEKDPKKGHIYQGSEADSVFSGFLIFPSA
T3 sequence (P02746 28-253 limits assumed, chain 2 of 3): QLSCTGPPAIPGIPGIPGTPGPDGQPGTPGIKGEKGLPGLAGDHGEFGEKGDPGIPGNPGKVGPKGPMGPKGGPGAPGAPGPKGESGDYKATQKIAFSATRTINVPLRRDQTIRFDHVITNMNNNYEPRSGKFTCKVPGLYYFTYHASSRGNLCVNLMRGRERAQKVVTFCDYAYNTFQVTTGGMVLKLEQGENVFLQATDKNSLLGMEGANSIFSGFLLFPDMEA
T3 sequence (P02747 29-245 limits assumed, chain 3 of 3): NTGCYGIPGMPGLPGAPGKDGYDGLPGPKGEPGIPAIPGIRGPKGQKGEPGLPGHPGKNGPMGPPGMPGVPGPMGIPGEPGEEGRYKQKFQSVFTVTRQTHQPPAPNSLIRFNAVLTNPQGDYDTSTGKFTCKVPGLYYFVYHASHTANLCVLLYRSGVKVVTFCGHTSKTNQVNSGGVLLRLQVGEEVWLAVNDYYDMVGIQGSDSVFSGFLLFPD

B1: Anti-CDH3 Ab L234A, L235A, L328C (antibody, human IgG1, kappa, L234A L235A)
heavy: QVQLQQSGPGLVKPSQTLSLTCAISGDSVSSQSAAWNWIRQSPSRGLEWLGRIYYRSKWYNDYALSVKSRITINPDTSKNQFSLQLNSVTPEDTAVYYCARGEGYGREGFAIWGQGTLVTVSSASTKGPSVFPLAPSSKSTSGGTAALGCLVKDYFPEPVTVSWNSGALTSGVHTFPAVLQSSGLYSLSSVVTVPSSSLGTQTYICNVNHKPSNTKVDKRVEPKSCDKTHTCPPCPAPEAAGGPSVFLFPPKPKDTLMISRTPEVTCVVVDVSHEDPEVKFNWYVDGVEVHNAKTKPREEQYNSTYRVVSVLTVLHQDWLNGKEYKCKVSNKACPAPIEKTISKAKGQPREPQVYTLPPSREEMTKNQVSLTCLVKGFYPSDIAVEWESNGQPENNYKTTPPVLDSDGSFFLYSKLTVDKSRWQQGNVFSCSVMHEALHNHYTQKSLSLSPGK
light: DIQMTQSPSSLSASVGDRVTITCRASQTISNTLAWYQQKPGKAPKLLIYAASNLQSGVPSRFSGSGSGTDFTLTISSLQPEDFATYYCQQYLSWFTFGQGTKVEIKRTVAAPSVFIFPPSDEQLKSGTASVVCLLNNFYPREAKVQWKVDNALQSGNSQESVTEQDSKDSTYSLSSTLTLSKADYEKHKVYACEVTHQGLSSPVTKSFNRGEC
notes: Fc variant; wild-type light chain; also called Anti-CDH3 Mab triple mutant; triple mutation L234A, L235A, and L328C
For B1, the binding result in test [1] is reported as “no binding (tested: 80 ug/ml)”; in [2] it was “binds”; in test [3], “binds”; in [5] it was “binds”; in test [6], “binds”. The “EC50 (read off the curve)” value in test [4] was around 0.04 nM.

B2: Anti-EGFR Ab No. 1 L234A, L235A, L328C (antibody, human IgG1, kappa, L234A L235A)
heavy: QVQLQESGPGLVKPSETLSLTCTVSGGSVSSGDYYWTWIRQSPGKGLEWIGHIYYSGNTNYNPSLKSRLTISIDTSKTQFSLKLSSVTAADTAIYYCVRDRVTGAFDIWGQGTMVTVSSASTKGPSVFPLAPSSKSTSGGTAALGCLVKDYFPEPVTVSWNSGALTSGVHTFPAVLQSSGLYSLSSVVTVPSSSLGTQTYICNVNHKPSNTKVDKKVEPKSCDKTHTCPPCPAPEAAGGPSVFLFPPKPKDTLMISRTPEVTCVVVDVSHEDPEVKFNWYVDGVEVHNAKTKPREEQYNSTYRVVSVLTVLHQDWLNGKEYKCKVSNKACPAPIEKTISKAKGQPREPQVYTLPPSREEMTKNQVSLTCLVKGFYPSDIAVEWESNGQPENNYKTTPPVLDSDGSFFLYSKLTVDKSRWQQGNVFSCSVMHEALHNHYTQKSLSLSPGK
light: not shown
notes: Fc variant; wild-type light chain; also called Anti-EGFR Mab No. 1 triple mutant; triple mutation L234A, L235A, and L328C
Consider B2, for which the binding result in test [7] was “binds”; in test [8], “binds”; in test [9], “no binding (tested: 30 ug/ml)”; in test [10] it was “no binding (tested: 80 ug/ml)”.

The EC50 (read off the curve) is the concentration needed to bring the measured effect to its halfway point.
